# Assay results reported in US20260167699A1 (Chugai, published 2026).
# Numbering of substitutions follows the chain as printed.
# T1: FcγRIIa(R) extracellular domain, C-terminal His tag (human, UniProt P12318 34-217)
# T1 construct: extracellular domain; Allotype R131; also called 2aR
# T1 sequence: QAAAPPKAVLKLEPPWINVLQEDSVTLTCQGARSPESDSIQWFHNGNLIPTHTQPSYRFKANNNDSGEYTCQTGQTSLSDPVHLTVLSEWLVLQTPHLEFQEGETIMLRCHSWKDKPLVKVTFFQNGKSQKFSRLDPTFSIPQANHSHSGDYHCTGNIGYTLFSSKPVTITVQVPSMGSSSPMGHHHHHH
# T2: FcγRIIa(H) extracellular domain, C-terminal His tag (human, UniProt P12318 34-217)
# T2 construct: extracellular domain; Allotype H131; also called 2aH
# T2 sequence: T1 sequence with R134H
# T3: FcγRIIb extracellular domain, C-terminal His tag (human, UniProt P31994 43-217)
# T3 construct: extracellular domain; also called 2b
# T3 sequence: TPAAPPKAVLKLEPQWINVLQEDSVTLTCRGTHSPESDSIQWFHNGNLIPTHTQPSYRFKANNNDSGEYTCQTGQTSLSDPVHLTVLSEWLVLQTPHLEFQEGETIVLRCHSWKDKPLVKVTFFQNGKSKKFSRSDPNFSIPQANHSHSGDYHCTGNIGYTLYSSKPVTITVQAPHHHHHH
# B1: GpH7-A5/GpH7-B3 variant I332_06M/GpL16-k0 (antibody, human IgG1, kappa)
# heavy 1: not shown
# heavy 2: not shown
# light: DIVMTQSPLSLPVTPGEPASISCQASESLVHSNRNTYLHWYLQKPGQSPQLLIYKVSNRFSGVPDRFSGSGSGTDFTLKISRVEAEDVGVYYCSQNTHVPPTFGQGTKVEIERTVAAPSVFIFPPSDEQLKSGTASVVCLLNNFYPREAKVQWKVDNALQSGNSQESVTEQDSKDSTYSLSSTLTLSKADYEKHKVYACEVTHQGLSSPVTKSFNRGEC
# notes: He Ab: anti-glypican 3 IgG1 heterodimer, only the GpH7-B3 chain mutated; position in EU numbering; also called He Ab
# B2: GpH7-A5/GpH7-B3 variant K326_02A/GpL16-k0 (antibody, human IgG1, kappa)
# heavy 1: not shown
# heavy 2: not shown
# light: B1 light
# notes: as for B1
# B3: GpH7-A5/GpH7-B3 variant K326_06M/GpL16-k0 (antibody, human IgG1, kappa)
# heavy 1: not shown
# heavy 2: not shown
# light: B1 light
# notes: as for B1
# B4: GpH7-A5/GpH7-B3 variant K326_19Q/GpL16-k0 (antibody, human IgG1, kappa)
# heavy 1: not shown
# heavy 2: not shown
# light: B1 light
# notes: as for B1
# B5: GpH7-A5/GpH7-B3 variant K326_07I/GpL16-k0 (antibody, human IgG1, kappa)
# heavy 1: not shown
# heavy 2: not shown
# light: B1 light
# notes: as for B1
# B6: GpH7-A5/GpH7-B3 variant K326_01G/GpL16-k0 (antibody, human IgG1, kappa)
# heavy 1: not shown
# heavy 2: not shown
# light: B1 light
# notes: as for B1
# B7: GpH7-A5/GpH7-B3 variant K326_12R/GpL16-k0 (antibody, human IgG1, kappa)
# heavy 1: not shown
# heavy 2: not shown
# light: B1 light
# notes: as for B1
# B8: GpH7-A5/GpH7-B3 variant K326_14T/GpL16-k0 (antibody, human IgG1, kappa)
# heavy 1: not shown
# heavy 2: not shown
# light: B1 light
# notes: as for B1
# B9: GpH7-A5/GpH7-B3 variant I332_13S/GpL16-k0 (antibody, human IgG1, kappa)
# heavy 1: not shown
# heavy 2: not shown
# light: B1 light
# notes: as for B1
# B10: GpH7-A5/GpH7-B3 variant I332_16H/GpL16-k0 (antibody, human IgG1, kappa)
# heavy 1: not shown
# heavy 2: not shown
# light: B1 light
# notes: as for B1
# B11: GpH7-A5/GpH7-B3 variant K326_18N/GpL16-k0 (antibody, human IgG1, kappa)
# heavy 1: not shown
# heavy 2: not shown
# light: B1 light
# notes: as for B1
# B12: GpH7-A5/GpH7-B3 variant I332_14T/GpL16-k0 (antibody, human IgG1, kappa)
# heavy 1: not shown
# heavy 2: not shown
# light: B1 light
# notes: as for B1
# B13: GpH7-A5/GpH7-B3 variant L328_06M/GpL16-k0 (antibody, human IgG1, kappa)
# heavy 1: not shown
# heavy 2: not shown
# light: B1 light
# notes: as for B1
# B14: GpH7-A5/GpH7-B3 variant L328_14T/GpL16-k0 (antibody, human IgG1, kappa)
# heavy 1: not shown
# heavy 2: not shown
# light: B1 light
# notes: as for B1
# B15: GpH7-A5/GpH7-B3 variant K326_05P/GpL16-k0 (antibody, human IgG1, kappa)
# heavy 1: not shown
# heavy 2: not shown
# light: B1 light
# notes: as for B1
# B16: GpH7-A5/GpH7-B3 variant K326_10E/GpL16-k0 (antibody, human IgG1, kappa)
# heavy 1: not shown
# heavy 2: not shown
# light: B1 light
# notes: as for B1
# B17: GpH7-A5/GpH7-B3 variant L328_07I/GpL16-k0 (antibody, human IgG1, kappa)
# heavy 1: not shown
# heavy 2: not shown
# light: B1 light
# notes: as for B1
# B18: GpH7-A5/GpH7-B3 variant K326_09D/GpL16-k0 (antibody, human IgG1, kappa)
# heavy 1: not shown
# heavy 2: not shown
# light: B1 light
# notes: as for B1
# B19: GpH7-A5/GpH7-B3 variant K326_16H/GpL16-k0 (antibody, human IgG1, kappa)
# heavy 1: not shown
# heavy 2: not shown
# light: B1 light
# notes: as for B1
# B20: GpH7-A5/GpH7-B3 variant K326_15Y/GpL16-k0 (antibody, human IgG1, kappa)
# heavy 1: not shown
# heavy 2: not shown
# light: B1 light
# notes: as for B1
# B21: GpH7-A5/GpH7-B3 variant L328_13S/GpL16-k0 (antibody, human IgG1, kappa)
# heavy 1: not shown
# heavy 2: not shown
# light: B1 light
# notes: as for B1
# B22: GpH7-A5/GpH7-B3 variant I332_10E/GpL16-k0 (antibody, human IgG1, kappa)
# heavy 1: not shown
# heavy 2: not shown
# light: B1 light
# notes: as for B1
# B23: GpH7-A5/GpH7-B3 variant K326_04F/GpL16-k0 (antibody, human IgG1, kappa)
# heavy 1: not shown
# heavy 2: not shown
# light: B1 light
# notes: as for B1
# B24: GpH7-A5/GpH7-B3 variant L328_04F/GpL16-k0 (antibody, human IgG1, kappa)
# heavy 1: not shown
# heavy 2: not shown
# light: B1 light
# notes: as for B1
# B25: GpH7-A5/GpH7-B3 variant I332_19Q/GpL16-k0 (antibody, human IgG1, kappa)
# heavy 1: not shown
# heavy 2: not shown
# light: B1 light
# notes: as for B1
# B26: GpH7-A5/GpH7-B3 variant K326_08L/GpL16-k0 (antibody, human IgG1, kappa)
# heavy 1: not shown
# heavy 2: not shown
# light: B1 light
# notes: as for B1
# B27: GpH7-A5/GpH7-B3 variant L328_03V/GpL16-k0 (antibody, human IgG1, kappa)
# heavy 1: not shown
# heavy 2: not shown
# light: B1 light
# notes: as for B1
# B28: GpH7-A5/GpH7-B3 variant K326_13S/GpL16-k0 (antibody, human IgG1, kappa)
# heavy 1: not shown
# heavy 2: not shown
# light: B1 light
# notes: as for B1
# B29: GpH7-A5/GpH7-B3 variant L328_02A/GpL16-k0 (antibody, human IgG1, kappa)
# heavy 1: not shown
# heavy 2: not shown
# light: B1 light
# notes: as for B1
# B30: GpH7-A5/GpH7-B3 variant K326_03V/GpL16-k0 (antibody, human IgG1, kappa)
# heavy 1: not shown
# heavy 2: not shown
# light: B1 light
# notes: as for B1
# Molecular target: T4, FcγRIa extracellular domain, C-terminal His tag (human, UniProt P12314 16-292)
# T4 construct: extracellular domain; also called 1a
# Experiment: SPR (Biacore); binding relative to GpH7-A5/GpH7-B3/GpL16-k0 x100;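 note: antibodies captured on a chip surface, soluble FcγR flowed over in HBS-EP+ running buffer at 25 °C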
# Description: (§1) The antibody of interest was analyzed for its interaction with FcγR using a BiaCore™ T100, BiaCore™ A100, or BiaCore™ 4000 surface plasmon resonance system (GE Healthcare Japan Corp.). The running buffer used was HBS-EP+ (GE Healthcare Japan Corp.). The assay temperature was set to 25° C. The sensor chips used were: a chip prepared by immobilizing antigenic peptides onto Series S Sensor Chip CM5 (GE Healthcare Japan Corp.) by the amine coupling method; a chip prepared by immobilizing antigenic peptides biotinylated in advance onto Series S Sensor Chip SA (certified) (GE Healthcare Japan Corp.) through their interaction; a chip prepared by immobilizing protein L (ACTIGEN, BioVision, Inc.) onto Series S Sensor Chip CM5 (GE Healthcare Japan Corp.); and a chip prepared by immobilizing protein A/G (Thermo Fisher Scientific K.K.) onto Series S Sensor Chip CM5 (GE Healthcare Japan Corp.). The antibody of interest was captured onto any of these chips and allowed to interact with FcγR diluted with a running buffer. The antibody captured on the chip was washed off through the reaction of 10 mM glycine-HCl (pH 1.5) to regenerate the chip, which was repetitively used.
# T4 sequence (P12314 other isoform, or with tags, fused parts or gaps): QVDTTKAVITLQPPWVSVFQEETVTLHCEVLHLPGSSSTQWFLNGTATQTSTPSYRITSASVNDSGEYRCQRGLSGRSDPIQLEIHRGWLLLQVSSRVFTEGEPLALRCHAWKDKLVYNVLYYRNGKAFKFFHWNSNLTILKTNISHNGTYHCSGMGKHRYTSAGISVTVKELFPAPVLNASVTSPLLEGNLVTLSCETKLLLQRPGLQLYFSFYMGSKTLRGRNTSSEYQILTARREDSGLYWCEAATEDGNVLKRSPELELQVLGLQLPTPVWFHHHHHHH
row,Binder,He/Con 1a
1,B1,105%
2,B2,107%
3,B3,108%
4,B4,108%
5,B5,106%
6,B6,106%
7,B7,105%
8,B8,109%
9,B9,97.3%
10,B10,100%
11,B11,110%
12,B12,104%
13,B13,101%
14,B14,103%
15,B15,106%
16,B16,109%
17,B17,102%
18,B18,109%
19,B19,109%
20,B20,111%
21,B21,101%
22,B22,109%
23,B23,107%
24,B24,100%
25,B25,103%
26,B26,105%
27,B27,103%
28,B28,106%
29,B29,101%
30,B30,107%

# Molecular target: T1, FcγRIIa(R) extracellular domain, …
# Experiment: as above
# Description: as §1
row,Binder,He/Con 2aR
1,B1,108%
2,B2,125%
3,B3,132%
4,B4,124%
5,B5,141%
6,B6,108%
7,B7,98.6%
8,B8,128%
9,B9,97.9%
10,B10,97.6%
11,B11,110%
12,B12,104%
13,B13,148%
14,B14,153%
15,B15,118%
16,B16,142%
17,B17,160%
18,B18,142%
19,B19,115%
20,B20,131%
21,B21,150%
22,B22,113%
23,B23,129%
24,B24,177%
25,B25,95.1%
26,B26,131%
27,B27,150%
28,B28,119%
29,B29,150%
30,B30,135%

# Molecular target: T2, FcγRIIa(H) extracellular domain, …
# Experiment: as above
# Description: as §1
row,Binder,He/Con 2aH
1,B1,114%
2,B2,110%
3,B3,108%
4,B4,106%
5,B5,104%
6,B6,105%
7,B7,105%
8,B8,119%
9,B9,113%
10,B10,113%
11,B11,113%
12,B12,119%
13,B13,122%
14,B14,138%
15,B15,103%
16,B16,106%
17,B17,111%
18,B18,115%
19,B19,102%
20,B20,102%
21,B21,146%
22,B22,112%
23,B23,101%
24,B24,84.9%
25,B25,112%
26,B26,96.5%
27,B27,116%
28,B28,110%
29,B29,154%
30,B30,101%

# Molecular target: T3, FcγRIIb extracellular domain, …
# Experiment: as above
# Description: as §1
row,Binder,He/Con 2b
1,B1,116%
2,B2,156%
3,B3,185%
4,B4,156%
5,B5,223%
6,B6,119%
7,B7,100%
8,B8,168%
9,B9,109%
10,B10,103%
11,B11,118%
12,B12,118%
13,B13,176%
14,B14,176%
15,B15,141%
16,B16,224%
17,B17,200%
18,B18,216%
19,B19,133%
20,B20,179%
21,B21,186%
22,B22,158%
23,B23,174%
24,B24,273%
25,B25,104%
26,B26,198%
27,B27,157%
28,B28,139%
29,B29,180%
30,B30,196%

# Molecular target: T5, FcγRIIIa extracellular domain, C-terminal His tag (human, UniProt P08637 17-208)
# T5 construct: extracellular domain; also called 3a
# Experiment: as above
# Description: as §1
# T5 sequence (P08637 other isoform, or with tags, fused parts or gaps): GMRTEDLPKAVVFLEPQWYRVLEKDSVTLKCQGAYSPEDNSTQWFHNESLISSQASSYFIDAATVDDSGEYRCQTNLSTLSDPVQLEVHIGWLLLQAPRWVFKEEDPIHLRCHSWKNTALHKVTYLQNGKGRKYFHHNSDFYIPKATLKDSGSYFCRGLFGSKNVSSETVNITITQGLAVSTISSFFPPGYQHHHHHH
row,Binder,He/Con 3a
1,B1,92.5%
2,B2,130%
3,B3,127%
4,B4,117%
5,B5,153%
6,B6,114%
7,B7,101%
8,B8,140%
9,B9,95.6%
10,B10,89%
11,B11,134%
12,B12,110%
13,B13,80.8%
14,B14,77.4%
15,B15,117%
16,B16,138%
17,B17,86.4%
18,B18,148%
19,B19,106%
20,B20,124%
21,B21,73.7%
22,B22,213%
23,B23,114%
24,B24,81.5%
25,B25,101%
26,B26,126%
27,B27,80.9%
28,B28,118%
29,B29,81.3%
30,B30,135%
